# Results reported in US20210002363A1 (PHANES THERAPEUTICS, published 2021).
# B1: F20-H3L1 (antibody, V domains shown)
# VH: QVQLVQSGAEVKKPGSSVKVSCKASGYTFASYYLYWVRQAPGQGLEWIGEINPRSGGTNFNEKFKSKATVTVDKSTNTAYMELSSLRSEDTAVYYCSRSGRLRGFYTMDYWGQGTLVTVSS
# VL: DIVMTQSPDSLAVSLGERATINCKAGENVGSYVSWYQQKPGQPPKLLIYGASNRYTGVPDRFSGSGSATDFTLTISSLQAEDVAVYYCGQTYRFLTFGQGTKVEIK
# notes: also called humanized F20 mAb H3L1
# B2: F20-H1L1 (antibody, V domains shown)
# VH: QVQLVQSGAEVKKPGSSVKVSCKASGYTFASYYLYWVRQAPGQGLEWIGEINPRSGGTNFNEKFKSRATVTVDKSTSTAYMELSSLRSEDTAVYYCSRSGRLRGFYTMDYWGQGTLVTVSS
# VL: DIVMTQSPDSLAVSLGERATINCKAGENVGSYVSWYQQKPGQPPKLLIYGASNRYTGVPDRFSGSGSATDFTLTISSLQAEDVAVYYCGQTYRFLTFGQGTKVEIK
# notes: also called humanized F20 mAb H1L1
# B3: F20-H3L2 (antibody, V domains shown)
# VH: QVQLVQSGAEVKKPGSSVKVSCKASGYTFASYYLYWVRQAPGQGLEWIGEINPRSGGTNFNEKFKSKATVTVDKSTNTAYMELSSLRSEDTAVYYCSRSGRLRGFYTMDYWGQGTLVTVSS
# VL: DIVMTQSPDSLAVSLGERATINCKAGENVGSYVSWYQQKPGQSPKLLIYGASNRYTGVPDRFSGSGSATDFTLTISSLQAEDVAVYYCGQTYRFLTFGQGTKVEIK
# notes: also called humanized F20 mAb H3L2
# B4: chimeric anti-FOLR1 mAb F4 (antibody, V domains shown)
# VH: EVQLVESGGGLVKPGGSLKLSCAASGFTFSDYGMHWVRQAPEKGLEWVAFISSGSNTIYYADIVKGRFAISRDNAKNTLFLQMASLRSEDTALYYCARLAEWDVAYWGQGTLVTVSA
# VL: DIVLTQSPATLSVTPGDRISLSCRASQNINNNLHWYQQKSHESPRLLIKFASQSISGIPSRFSGSGSGTDFTLNINGVETEDFGMYFCQQIYSWPQLTFGAGTRLELK
# notes: also called Chimeric mAb F4
# B5: mouse anti-FOLR1 mAb F4 (purified from hybridoma supernatant) (antibody, V domains shown)
# VH: EVQLVESGGGLVKPGGSLKLSCAASGFTFSDYGMHWVRQAPEKGLEWVAFISSGSNTIYYADIVKGRFAISRDNAKNTLFLQMASLRSEDTALYYCARLAEWDVAYWGQGTLVTVSA
# VL: DIVLTQSPATLSVTPGDRISLSCRASQNINNNLHWYQQKSHESPRLLIKFASQSISGIPSRFSGSGSGTDFTLNINGVETEDFGMYFCQQIYSWPQLTFGAGTRLELK
# notes: Mouse antibody from hybridoma, purified on Protein A, detected with anti-mouse IgG; also called mAb clone F4
# B6: chimeric anti-FOLR1 mAb F19 (antibody, V domains shown)
# VH: EVKLDETGGGLVQPGRPMKLSCVASGFTFSDYWMNWVRQSPDKGLEWVAQIGNKFHNYETYYSDSVKGRFTISRDDSKSSVYLQMNSLRVEDTGIYYCTKLGRGYYVMDYWGQGTSVTVSS
# VL: DIQMTQTTSSLSASLGDRVTLNCRASQDITNHLNWFQQKPDGTFQLLIYYTSRLHSGVPSRFSGSGSGTDYSLTISNLEQEDFATYFCQQDSQHPWTFGGGTKLEIK
# notes: also called Chimeric mAb F19
# B7: chimeric anti-FOLR1 mAb F20 (antibody, V domains shown)
# VH: QVQLQQSGAELVKPGASVQLSCKASGYTFASYYLYWVKQRPGQGLEWIGEINPRSGGTNFNEKFKSKATVTVDKSSSTAYMQLSSLTSEDSAVYYCSRSGRLRGFYTMDYWGQGTSVTVSS
# VL: NIVMTQSPKSMSVSVGERVTLSCKAGENVGSYVSWYQQKPEQSPELLIYGASNRYTGVPDRFTGSGSATDFTLTISSVQAEDLADYYCGQTYRFLTFGAGTKLELK
# notes: also called Chimeric mAb F20
# B8: F5-H3L1 (antibody, V domains shown)
# VH: EVQLVESGGGLVQPGGSLRLSCAVSGFTFSNYGMSWVRQAPGKGLEWVATISSGGSYTYYPDSVKGRFTISRDNSKNTLYLQMSSLRAEDTAVYYCSTQGSSGYVGYWGQGTLVTVSS
# VL: DIQMTQSPSSVSASVGDRVTITCKASQDITNFIGWYQHKPGKAPKLLISYTSILESGVPSRFSGSGSGRDYTLTISSLQPEDFATYYCLQYYNLWTFGGGTKVEIK
# notes: also called humanized F5 mAb H3L1
# B9: F5-H3L2 (antibody, V domains shown)
# VH: EVQLVESGGGLVQPGGSLRLSCAVSGFTFSNYGMSWVRQAPGKGLEWVATISSGGSYTYYPDSVKGRFTISRDNSKNTLYLQMSSLRAEDTAVYYCSTQGSSGYVGYWGQGTLVTVSS
# VL: DIQMTQSPSSVSASVGDRVTITCKASQDITNFIGWYQHKPGKAPKLLISYTSILESGVPSRFSGSGSGTDYTLTISSLQPEDFATYYCLQYYNLWTFGGGTKVEIK
# notes: also called humanized F5 mAb H3L2
# B10: chimeric anti-FOLR1 mAb F7 (antibody, V domains shown)
# VH: EFQLQQSGPELVKPGASVKISCKASGYSFTDYNMNWVKQSNGKSLEWIGVIDPNYGTTNYNQKFVGKATLTVDQSSITAYMQLNSLTAEDSAVYFCAIKGYGNPAAYWGQGTLVTVSA
# VL: DIQMTQSPSSLSASLGGKVTITCKASQDINKYLAWYQHEPGKGPRLLIRYTSILESGIPSRFSGSGSGRDYSFSISNLEPEDIATYYCLQYYNLWTFGGGTKLEIK
# notes: also called Chimeric mAb F7
# B11: mouse anti-FOLR1 mAb F7 (purified from hybridoma supernatant) (antibody, V domains shown)
# VH: EFQLQQSGPELVKPGASVKISCKASGYSFTDYNMNWVKQSNGKSLEWIGVIDPNYGTTNYNQKFVGKATLTVDQSSITAYMQLNSLTAEDSAVYFCAIKGYGNPAAYWGQGTLVTVSA
# VL: DIQMTQSPSSLSASLGGKVTITCKASQDINKYLAWYQHEPGKGPRLLIRYTSILESGIPSRFSGSGSGRDYSFSISNLEPEDIATYYCLQYYNLWTFGGGTKLEIK
# notes: Mouse antibody from hybridoma, purified on Protein A, detected with anti-mouse IgG; also called mAb clone F7
# B12: mouse anti-FOLR1 mAb F17 (purified from hybridoma supernatant) (antibody, V domains shown)
# VH: DVQLVESGGGLVQPGGSRKLSCAASGFTFSDFGMHWIRQAPERGLEWVAYMSYTPGTFHYADTVKDRFFISRDNAKNTLFLQMTSLRSDDTAMYYCARVHVGTVDYWGQGTSVTVSS
# VL: DVVLTQSPATLSVTPGDSVSLSCRASQNINNNLHWFQQKSHESPRLLIKYASQSISGIPSRFSGSGSGTDFTLSINNVETEDFGIYFCQQSNSWPALTFGTGTKVELK
# notes: Mouse antibody from hybridoma, purified on Protein A, detected with anti-mouse IgG; also called mAb clone F17
# B13: mouse anti-FOLR1 mAb F8 (purified from hybridoma supernatant) (antibody, V domains shown)
# VH: EVMLVESGGGLVKPGGSLKLSCVASGFTLSTYAMSWVRQTPEKRLEWVATISGGGGDTYHLDTVKGRFTISRDNAKNTLYLQMSSLRSEDTALYYCARQSHYGSSYYFDNWGQGTTLTVSS
# VL: DIQMTQSPASLSASVGEIVTIICRVSENIDSYLAWYQQKQGKSPQLLVYAATNLADGVPSRFSGSGSGSQYSLKINSLQSEDVARYYCQHYYTTPPTFGGGTKLDIK
# notes: Mouse antibody from hybridoma, purified on Protein A, detected with anti-mouse IgG; also called mAb clone F8
# B14: chimeric anti-FOLR1 mAb F8 (antibody, V domains shown)
# VH: EVMLVESGGGLVKPGGSLKLSCVASGFTLSTYAMSWVRQTPEKRLEWVATISGGGGDTYHLDTVKGRFTISRDNAKNTLYLQMSSLRSEDTALYYCARQSHYGSSYYFDNWGQGTTLTVSS
# VL: DIQMTQSPASLSASVGEIVTIICRVSENIDSYLAWYQQKQGKSPQLLVYAATNLADGVPSRFSGSGSGSQYSLKINSLQSEDVARYYCQHYYTTPPTFGGGTKLDIK
# notes: also called Chimeric mAb F8
# Columns and labels:
# [1] = biological target: T1, FOLR1 on SK-OV-3 cells (ATCC HTB-77) (Homo sapiens (Human), UniProt P15328 25-234); experiment: FACS on SK-OV-3 cells; MFI
# T1 construct: Endogenous FOLR1 of the cell line; also called cells that are known to express FOLR1
# T1 sequence (P15328 25-234 limits assumed): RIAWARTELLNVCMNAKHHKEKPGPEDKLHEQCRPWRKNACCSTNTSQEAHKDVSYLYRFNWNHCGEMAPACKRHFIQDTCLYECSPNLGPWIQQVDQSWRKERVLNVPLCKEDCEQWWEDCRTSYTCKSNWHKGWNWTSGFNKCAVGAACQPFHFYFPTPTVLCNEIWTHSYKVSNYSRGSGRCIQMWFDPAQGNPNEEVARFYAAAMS
# [2] = biological target: T1, FOLR1 on SK-OV-3 cells (ATCC HTB-77); experiment: FACS on SK-OV-3 cells; Alexa Fluor 488 F(ab')2 goat anti-human IgG Fc; MFI
# Protocol: To assess the binding of the chimeric anti-FOLR1 mAbs to cells that are known to express FOLR1, SK-OV-3 (ATCC® HTB-77™) cells were plated at 80,000 cells per well on a 96-well non-binding U-bottom plate (Greiner Bio-One, Cat#: 650901). In some experiments, 90,000 cells per well were used. The cells were incubated in 50 μL FACS buffer (HBSS with 0.1% BSA and 0.05% sodium azide) containing mAbs at different concentrations on ice for 15 minutes. After wash, cells were incubated in 50 μL FACS buffer containing 3.5 μg/mL F(ab′)2-Goat anti-Human IgG Fc conjugated to Alexa Fluor® 488 (Invitrogen, Cat#: H10120) on ice for 15 minutes in dark and washed again. Cells were analyzed using an Attune NxT flow cytometer. MFI, mean fluorescence intensity.
# [3] = biological target: T2, Recombinant extracellular domain of human FOLR1 (Novoprotein, Cat#: C784) (human, UniProt P15328 25-233, limits assumed); experiment: SPR (Biacore 8k), mAb captured on protein A chip, recombinant FOLR1 as analyte, 1:1 model
# T2 construct: Bought reagent; also called recombinant FOLR1; immobilized FOLR1 extracellular domain
# T2 sequence (P15328 25-233 limits assumed): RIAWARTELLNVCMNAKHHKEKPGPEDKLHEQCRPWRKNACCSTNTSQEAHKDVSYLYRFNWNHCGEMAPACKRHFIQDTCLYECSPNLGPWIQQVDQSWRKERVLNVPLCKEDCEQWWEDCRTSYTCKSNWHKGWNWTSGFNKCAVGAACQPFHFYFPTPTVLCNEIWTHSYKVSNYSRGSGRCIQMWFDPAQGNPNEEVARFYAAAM
# Protocol: The interaction of the chimeric anti-FOLR1 mAbs and FOLR1 was measured by Surface Plasmon Resonance (SPR) (Biacore 8k, GE Healthcare). Briefly, an anti-FOLR1 mAb was immobilized to a protein A sensor chip (GE Healthcare, Cat#: 29-1275-56) in HBS-P buffer (0.01 M HEPES pH 7.4, 0.15 M NaCl, 0.05% v/v Surfactant P20) with an injection flow rate at […]. The recombinant FOLR1 (Novoprotein, Cat#: C784) at variant concentrations was loaded with the flow rate of 30 μL/min in HBS-P buffer. Following antigen loading, the surface was regenerated with 10 mM glycine-HCl (pH 1.5). Sensor grams were fit with a 1:1 binding model using Biacore 8k evaluation software (GE Healthcare).
# [4] = biological target: T2, Recombinant extracellular domain of …; experiment: ELISA on plate-coated recombinant human FOLR1 extracellular domain; anti-human IgG-HRP; O.D. 450 nm
# Protocol: The Purified chimeric mAbs were tested in an ELISA assay for their ability to bind to immobilized human FOLR1. Recombinant extracellular domain of human FOLR1 (Novoprotein, Cat#: C784) in carbonate coating buffer was coated on a 96-well plate at room temperature for 1 hour. The plate is blocked by 5% BSA in TBST for 1 hour at room temperature. In each well of an individual plate, mAbs at various concentrations were incubated for 1 hour at room temperature. The plate was washed and the binding to FOLR1 was detected by anti-human IgG conjugated to horseradish peroxidase (hIgG-HRP) (ThermoFisher Scientific, Cat#: H10007) with incubation for 1 hour at room temperature. Then after washing, the ELISA was developed using One-step Detection Solution (ThermoFisher Scientific, Cat#: 34028) and measured as the absorbance at 450 nm.
# [5] = biological target: T3, full-length human FOLR1 on stably transfected CHO cells (human, UniProt P15328 25-234); experiment: FACS on CHO cells stably expressing full-length human FOLR1; PE goat anti-mouse IgG; MFI
# T3 construct: also called CHO cells stably expressing human FOLR1
# T3 sequence (P15328 25-234 limits assumed): as the sequence (P15328 25-234 limits assumed) above
# Protocol: CHO cells stably transfected with full-length human FOLR1 were transferred to a 96-well plate at 200,000 cells/well, washed once with FACS buffer (1×PBS, pH6.8+2% FBS) and incubated with purified mouse anti-FOLR1 mAbs from hybridoma supernatants at various concentrations for 15 minutes on ice. Cells were then centrifuged at 1,000 rpm for 5 minutes and washed with FACS buffer three times. The cells were incubated with PE-conjugated goat anti-mouse IgG polyclonal antibodies and incubated on ice for another 15 minutes. Cells were then washed with FACS buffer three times and then resuspended in FACS buffer containing 0.1 μg/ml PI (propidium iodide) for live/dead cell gating. Cells were then run through the FACS Caliber instrument and the data were analyzed by the Flowjo software. MFI, mean fluorescence intensity.
# [6] = biological target: T2, Recombinant extracellular domain of …; experiment: ELISA on immobilized FOLR1 extracellular domain; O.D. 450 nm
binder,measurement,setting,value
B1,EC50 (read off the curve),[1],1 to 2 nM
B2,EC50 (read off the curve),[1],1 to 2 nM
B3,EC50 (read off the curve),[1],1 to 2 nM
B4,EC50 (read off the curve),[2],~0.5 nM
same,Kd,[3],0.547 nM
same,EC50 (read off the curve),[4],~0.2 nM
B5,EC50 (read off the curve),[5],~1 mg/L
B6,Kd,[3],11.8 nM
B7,Kd,[3],1 nM
B8,binding result,[6],binds
B9,binding result,[6],binds
B10,EC50 (read off the curve),[2],~0.2 nM
same,Kd,[3],2.33 nM
same,EC50 (read off the curve),[4],~0.1 nM
B11,EC50 (read off the curve),[5],~0.1 mg/L
B12,EC50 (read off the curve),[5],~0.3 mg/L
B13,EC50 (read off the curve),[5],~0.5 mg/L
B14,Kd,[3],0.721 nM
